Patent US10487308B2, “Culture medium composition” (NISSAN CHEMICAL CORPORATION, priority 2014, dated 2019)

Assay: Viscosity measurement and state of medium composition
Type: physicochemical
Conditions: for viscosity: 37° C., 100 rpm
Experimental: Deacylated gellan gum (KELCOGEL CG-LA, manufactured by SANSHO Co., Ltd.) was suspended in pure water to 0.4% (w/v), and dissolved by stirring with heating at 90° C. This aqueous solution was allowed to cool to room temperature with stirring, and sterilized at 121° C. for 20 min in an autoclave. A 2-fold concentration of DMEM/F-12 medium (manufactured by Aldrich, 50 mL) and sterilization water (47.5 mL) were placed in a 300 mL tall beaker with stirring by a homomixer (3000 rpm) at room temperature, aqueous deacylated gellan gum solution (2.5 mL) was added, and the mixture was continuously stirred for 1 min to prepare a deacylated gellan gum medium composition with a final concentration of 0.01%. Medium compositions added with aqueous deacylated gellan gum solution with final concentrations of 0.02, 0.03 and 0.05% (w/v) were similarly prepared. The viscosity of the medium compositions was measured using an E type viscometer (manufactured by Toki Sangyo Co., Ltd., Viscometer TVE-22 L, standard roter 1° 34′×R24) under 37° C. condition at 100 rpm for 5 min.
The medium compositions prepared above were subjected to a suspension test of HeLa cell spheres and a viscosity measurement, in the same manner as with the deacylated gellan gum-containing medium. The viscosity of 1.0% (w/v) methylcellulose was measured at 50 rpm due to the measurement range of the apparatus.
In the same manner as in Reference Experimental Example 2, spheres of HeLa cells were formed, and several tens of the spheres were added to each medium (1 mL) prepared above, the mixture was stood still at 37° C. for 1 hr, and the suspended state of the sphere cells was visually observed. […] Furthermore, it was confirmed that addition of an equal amount of the medium to the cell suspension and centrifugation (300 to 400G, for 5 min) thereof result in sedimentation and recovery of the spheres of HeLa cells.
By a method similar to that for the polysaccharide mixture of Reference Experimental Example 9, DMEM/F-12 media containing deacylated gellan gum at a final concentration of 0.005, 0.01% (w/v) and other polysaccharide were prepared. The final concentration of polysaccharide was set to 0.1% (w/v) for xanthan gum, sodium alginate, locust bean gum, 0.2% (w/v) for methylcellulose, and 0.05% (w/v) for K-carageenan and diutan gum. The state of each medium composition and the viscosity measured by a method similar to that in Analysis Example 1 are shown in Tables 11-16.

With collagen the state (0.01% (w/v) in DMEM/F-12) was “liquid”, the state (0.05% (w/v) in DMEM/F-12) was “liquid/solid” and the viscosity (0.05% (w/v) in DMEM/F-12) was “unmeasurable”. For the same substance, the state (0.1% (w/v) in DMEM/F-12) was “solid (gel)”, the viscosity (0.1% (w/v) in DMEM/F-12) was “unmeasurable” and the state (0.2% (w/v) in DMEM/F-12) was “solid (gel)”. For the same substance, the viscosity (0.2% (w/v) in DMEM/F-12) was “unmeasurable”.
